According to patent US20120148607A1 (ARGEN X N V, published 2012):

Target: T1, recombinant dimeric c-Met (R&D systems, 358-MT/CF) (human, UniProt P08581 25-932)
T1 construct: Bought product; also called Fc-Met; recombinant c-Met
Assay: SPR, periplasmic Fab over Fc-Met (around 3000 RU) on CM5 chip
Experimental: The clones were then tested for their dissociation constants by Surface Plasmon Resonance. Around 3000 RU of Fc-Met was immobilized directly onto a CM5 chip to obtain a clear binding profile from the periplasmic extracts. Clones with an improved off-rate were sent for sequencing.

T1 sequence (P08581 25-932 limits assumed): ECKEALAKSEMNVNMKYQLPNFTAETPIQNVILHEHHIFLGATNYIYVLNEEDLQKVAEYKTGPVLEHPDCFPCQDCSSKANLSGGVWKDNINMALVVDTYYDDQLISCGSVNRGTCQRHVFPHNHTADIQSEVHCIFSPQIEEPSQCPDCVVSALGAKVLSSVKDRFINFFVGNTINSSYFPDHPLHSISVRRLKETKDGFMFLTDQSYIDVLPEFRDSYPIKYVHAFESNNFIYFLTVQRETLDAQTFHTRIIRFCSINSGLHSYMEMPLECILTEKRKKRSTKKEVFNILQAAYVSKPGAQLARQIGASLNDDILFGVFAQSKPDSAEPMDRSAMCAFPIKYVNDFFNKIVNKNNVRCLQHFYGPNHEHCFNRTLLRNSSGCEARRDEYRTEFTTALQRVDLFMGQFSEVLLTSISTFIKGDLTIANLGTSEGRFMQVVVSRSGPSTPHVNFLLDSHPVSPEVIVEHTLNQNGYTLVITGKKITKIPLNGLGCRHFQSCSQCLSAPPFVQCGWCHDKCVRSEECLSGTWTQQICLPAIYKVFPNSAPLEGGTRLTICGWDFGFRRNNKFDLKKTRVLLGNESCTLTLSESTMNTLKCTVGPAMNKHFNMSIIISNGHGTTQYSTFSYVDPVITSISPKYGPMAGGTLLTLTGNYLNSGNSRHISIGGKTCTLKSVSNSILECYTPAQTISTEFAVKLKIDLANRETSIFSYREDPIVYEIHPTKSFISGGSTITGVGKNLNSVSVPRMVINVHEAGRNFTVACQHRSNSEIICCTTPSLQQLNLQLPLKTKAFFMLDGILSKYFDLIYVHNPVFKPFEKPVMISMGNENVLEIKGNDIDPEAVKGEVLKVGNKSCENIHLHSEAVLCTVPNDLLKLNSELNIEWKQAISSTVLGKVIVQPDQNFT

Binder	koff [s⁻¹]
48A1 VL shuffled Fab (Fab, V domains shown, VL-shuffled Fab with the 38H10 heavy chain, periplasmic extract; The printed 48A1 VK reads the same as the 38H10 VK) VH: EVQLVQPGVELRNPGASVKVSCKASGYIFTMNSIDWVRQAPGQGLEWMGRIDPEDGGTKYAQKFQGRVTFTADTSTSTAYVELNSLRSEDTAVYYCARVDDYYLGYDYWGQGTQVTVSS VL: EIVMTQSPSSVTASAGEKVTINCKSSQSVLWRSNQKNYLAWYQQRLGQSPRLLISWASIRESGVPDRFSGSGSTTDFTLTISSFQPEDAAVYYCQQGYSFPYTFGSGTRLEIK	0.00081
48A11 VL shuffled Fab (Fab, V domains shown, VL-shuffled Fab with the 38H10 heavy chain, periplasmic extract) VH: EVQLVQPGVELRNPGASVKVSCKASGYIFTMNSIDWVRQAPGQGLEWMGRIDPEDGGTKYAQKFQGRVTFTADTSTSTAYVELNSLRSEDTAVYYCARVDDYYLGYDYWGQGTQVTVSS VL: DIVMTQTPSSVTAAVGEKVAINCKSSQSVLYNPNQKSYLAWYQQRPGQSPRLLIYWASTRESGVPDRFSGSGSTTDFALTISSFQPEDAAVYYCQQGYSFPYSFGSGTRLEIR	0.00025
48B6 VL shuffled Fab (Fab, V domains shown, VL-shuffled Fab with the 38H10 heavy chain, periplasmic extract) VH: EVQLVQPGVELRNPGASVKVSCKASGYIFTMNSIDWVRQAPGQGLEWMGRIDPEDGGTKYAQKFQGRVTFTADTSTSTAYVELNSLRSEDTAVYYCARVDDYYLGYDYWGQGTQVTVSS VL: DIQLTQSPSSVTASAGEKVTINCKSSQSVLYGSNQKNYLAWYQQRLGQSPRLLIYWASTRESGVPDRFSGSGSTTDFTLTISSFQPEDAAVYYCQQGWSFPYTFGSGTRLEIK	0.00012
48B8 VL shuffled Fab (Fab, V domains shown, VL-shuffled Fab with the 38H10 heavy chain, periplasmic extract) VH: EVQLVQPGVELRNPGASVKVSCKASGYIFTMNSIDWVRQAPGQGLEWMGRIDPEDGGTKYAQKFQGRVTFTADTSTSTAYVELNSLRSEDTAVYYCARVDDYYLGYDYWGQGTQVTVSS VL: DVVMTQSPSSVTASVGEKVTINCKSSQSVLYTSNHKNYLAWYQQRLGQSPRLLIYWASTRESGVPDRFSGSGSTTDFTLTISSFQPEDAAVYYCQQGWSFPYSFGSGTRLEIK	0.00033
48C8 VL shuffled Fab (Fab, V domains shown, VL-shuffled Fab with the 38H10 heavy chain, periplasmic extract) VH: EVQLVQPGVELRNPGASVKVSCKASGYIFTMNSIDWVRQAPGQGLEWMGRIDPEDGGTKYAQKFQGRVTFTADTSTSTAYVELNSLRSEDTAVYYCARVDDYYLGYDYWGQGTQVTVSS VL: DIQLTQSPSSVTVSVGEKVTINCKSSQSVLYNSNQKNYLAWYQQRLGQSPRLLIYWASTRESGVPDRFSGSGSTTDFTLTISSFQPEDAAVYYCQQGWSFPYTFGSGTRLEIK	0.00033
48D2 VL shuffled Fab (Fab, V domains shown, VL-shuffled Fab with the 38H10 heavy chain, periplasmic extract) VH: EVQLVQPGVELRNPGASVKVSCKASGYIFTMNSIDWVRQAPGQGLEWMGRIDPEDGGTKYAQKFQGRVTFTADTSTSTAYVELNSLRSEDTAVYYCARVDDYYLGYDYWGQGTQVTVSS VL: DIVMTQTPSSVTASAGEKVTINCKSSQSVLYNSNQKNYLAWYQQRLGQSPRLLIYWASTRESGVPDRFSGSGSTTDFTLTISSFQPEDAAVYYCQQGWSFPYTFGSGTRLEIK	0.00013
48D7 VL shuffled Fab (Fab, V domains shown, VL-shuffled Fab with the 38H10 heavy chain, periplasmic extract) VH: EVQLVQPGVELRNPGASVKVSCKASGYIFTMNSIDWVRQAPGQGLEWMGRIDPEDGGTKYAQKFQGRVTFTADTSTSTAYVELNSLRSEDTAVYYCARVDDYYLGYDYWGQGTQVTVSS VL: DIVMTQTPASVTASAGEKVTINCKSSQSVLFSSNQKNYLAWYQQRVGQSPRLLIYWASTRESGVPDRFSGSGSTTDFTLTISNFQPEDAAVYYCQQGYSFPYSFGSGTRLEIR	0.00025
48E2 VL shuffled Fab (Fab, V domains shown, VL-shuffled Fab with the 38H10 heavy chain, periplasmic extract) VH: EVQLVQPGVELRNPGASVKVSCKASGYIFTMNSIDWVRQAPGQGLEWMGRIDPEDGGTKYAQKFQGRVTFTADTSTSTAYVELNSLRSEDTAVYYCARVDDYYLGYDYWGQGTQVTVSS VL: DVVMTQSPSSVTASAGEKVTINCKSSQSVLWSSNQKNYLAWYQQRVGQSPRLLIYWASTRESGVPDRFSGSGSTTDFTLTISNFQPEDAAVYYCQQGYSFPYSFGSGTRLEIR	0.00029
48E5 VL shuffled Fab (Fab, V domains shown, VL-shuffled Fab with the 38H10 heavy chain, periplasmic extract) VH: EVQLVQPGVELRNPGASVKVSCKASGYIFTMNSIDWVRQAPGQGLEWMGRIDPEDGGTKYAQKFQGRVTFTADTSTSTAYVELNSLRSEDTAVYYCARVDDYYLGYDYWGQGTQVTVSS VL: DIQMTQSPSSVTASAGEKVTINCKSSQSVLYNSNQKNYLAWYQQRLGQSPRLLIYWASTRESGVPDRFSGSGSTTDFTLTISSFQPEDAAVYYCQQGWSFPYTFGSGTRLEIK	0.00019
36C4Q Fab (Fab, V domains shown) VH: QVQLVESGPGLVKPSQTLSLTCAVSGGSITTNYYYWSWIRQSPGKGLEWMGVIAYDGSTDYSPSLKSRTSISRDTSKNQFSLQLSSVTPEDTAVYYCARDVRVIATGWATANALDAWGQGTQVTVSS VL: QSVLTQPPSVSGSPGKTVTISCAGTSSDVGYGNYVSWYQQLPGTAPKLLIFAVSYRASGIPDRFSGSKSGNTAFLTISGLQSEDEADYYCASYRSSNNAAVFGGGTHLTVL	0.00017
49A1 VL shuffled Fab (Fab, V domains shown, VL-shuffled Fab with the 36C4Q heavy chain, periplasmic extract) VH: QVQLVESGPGLVKPSQTLSLTCAVSGGSITTNYYYWSWIRQSPGKGLEWMGVIAYDGSTDYSPSLKSRTSISRDTSKNQFSLQLSSVTPEDTAVYYCARDVRVIATGWATANALDAWGQGTQVTVSS VL: QSVLTQPPSVSGSPGKTVTISCAGTSSDVGYGNYVSWYQQLPGTAPKLLIFAVSYRASGIPDRFSGSKSGNTAFLTISGLQSEDEADYYCASYRSSNNAAVFGGGTHLTVL	0.00017
49A11 VL shuffled Fab (Fab, V domains shown, VL-shuffled Fab with the 36C4Q heavy chain, periplasmic extract) VH: QVQLVESGPGLVKPSQTLSLTCAVSGGSITTNYYYWSWIRQSPGKGLEWMGVIAYDGSTDYSPSLKSRTSISRDTSKNQFSLQLSSVTPEDTAVYYCARDVRVIATGWATANALDAWGQGTQVTVSS VL: QSALTQPPSVSGSPGKTVTISCAGTSSDVGYGNYVSWYQKLPGTAPKLLIYAVSYRASGIPDRFSGSRSGNTASLTISGLQSEDEADYYCASYRITNRHSVFGGGTHLTVL	0.00048
49C4 VL shuffled Fab (Fab, V domains shown, VL-shuffled Fab with the 36C4Q heavy chain, periplasmic extract) VH: QVQLVESGPGLVKPSQTLSLTCAVSGGSITTNYYYWSWIRQSPGKGLEWMGVIAYDGSTDYSPSLKSRTSISRDTSKNQFSLQLSSVTPEDTAVYYCARDVRVIATGWATANALDAWGQGTQVTVSS VL: QSALTQPPSVSGTLGKTVTISCAGTSSDVGYGNYVSWYQKLPGTAPKLLIYAVTYRASGIPDRFSGSKSGNTASLTISGLQSEDEADYYCASYRRSTNVGVFGGGTHLTVL	0.00018
49D2 VL shuffled Fab (Fab, V domains shown, VL-shuffled Fab with the 36C4Q heavy chain, periplasmic extract) VH: QVQLVESGPGLVKPSQTLSLTCAVSGGSITTNYYYWSWIRQSPGKGLEWMGVIAYDGSTDYSPSLKSRTSISRDTSKNQFSLQLSSVTPEDTAVYYCARDVRVIATGWATANALDAWGQGTQVTVSS VL: QSVLTQPPSVSGTLGKTLTISCAGTSTDVGYGNYVSWYQQLPGTAPKLLIFAVSYRASGIPDRFSGSKSGNTAFLTISGLQSEDEADYYCASYRSSNNAAVFGGGTHLTVL	0.00017
49D3 VL shuffled Fab (Fab, V domains shown, VL-shuffled Fab with the 36C4Q heavy chain, periplasmic extract) VH: QVQLVESGPGLVKPSQTLSLTCAVSGGSITTNYYYWSWIRQSPGKGLEWMGVIAYDGSTDYSPSLKSRTSISRDTSKNQFSLQLSSVTPEDTAVYYCARDVRVIATGWATANALDAWGQGTQVTVSS VL: LPVLTQPPSVSGTLGKTLTISCAGTSSDVGYGNYVSWYQQLPGTAPKLLIYAVSYRASGIPDRFSGSKSGNTASLSISGLQSEDEADYYCASYRSSNKNAVFGGGTHLTVL	0.00082
